In US7193044:
Non-standard residues stand in square brackets, D forms with d. No end group written: not given here. pS = N[C@@H](COP(=O)(O)O)C(=O)O

Molecular target: Recombinant Bcl-XL tagged with the glutathione S-transferase (GST) moiety [GST: P08515]
Test: competition ELISA: peptide against immobilised BAK BH3 peptide for GST-Bcl-XL

Recombinant Bcl-XL tagged with the glutathione S-transferase (GST) moiety [GST: P08515], sequence (Q07817 whole entry): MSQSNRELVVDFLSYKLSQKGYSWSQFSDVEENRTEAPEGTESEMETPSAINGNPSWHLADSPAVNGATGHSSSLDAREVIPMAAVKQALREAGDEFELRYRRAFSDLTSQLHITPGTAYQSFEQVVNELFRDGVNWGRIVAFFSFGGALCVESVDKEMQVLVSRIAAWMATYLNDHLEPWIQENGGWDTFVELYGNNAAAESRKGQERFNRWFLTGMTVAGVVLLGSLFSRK

## AAQRYGRELRRM[pS]DEFEGSFKGLPRP [Synthetic BAD BH3 peptide (residues 143-168) phosphorylated on Ser155]
  fold reduction of affinity against the unphosphorylated BAD BH3 peptide: > 100 fold
